Tested on: type 2 diabetic patients
Experiment: Treatment-emergent adverse events, SAEs, deaths, TEAEs leading to withdrawal (Example 1)
Settings: Safety population
Method: Safety: The safety analysis was conducted on the safety population, defined as all randomized patients who received at least one dose of IMP (regardless of the amount of treatment administered). The evaluation of AEs, laboratory, vital sign, and ECG data was descriptive.

## Gly(A21)-Arg(B31)-Arg(B32)-human insulin [Insulin Glargine]
PT
  TEAE leading to permanent treatment discontinuation: Confusional state: 0 n (%)
  TEAE leading to permanent treatment discontinuation: Dizziness: 0 n (%)
  TEAE leading to permanent treatment discontinuation: Headache: 0 n (%)
  TEAE leading to permanent treatment discontinuation: Nausea: 0 n (%)
  TEAE leading to permanent treatment discontinuation: Ovarian cancer: 0 n (%)
  TEAE leading to permanent treatment discontinuation: Vomiting: 0 n (%)
  TEAE: Abdominal distension: 2 (1.2%) n (%)
  TEAE: Arthralgia: 3 (1.9%) n (%)
  TEAE: Asthenia: 0 n (%)
  TEAE: Atrial fibrillation: 1 (0.6%) n (%)
  TEAE: Back pain: 2 (1.2%) n (%)
  TEAE: Bronchitis: 1 (0.6%) n (%)
  TEAE: Conjunctivitis: 2 (1.2%) n (%)
  TEAE: Constipation: 0 n (%)
  TEAE: Contusion: 2 (1.2%) n (%)
  TEAE: Cough: 0 n (%)
  TEAE: Cystitis: 2 (1.2%) n (%)
  TEAE: Decreased appetite: 0 n (%)
  TEAE: Depression: 2 (1.2%) n (%)
  TEAE: Diabetic neuropathy: 2 (1.2%) n (%)
  TEAE: Diarrhoea: 6 (3.7%) n (%)
  TEAE: Dizziness: 1 (0.6%) n (%)
  TEAE: Dyspepsia: 1 (0.6%) n (%)
  TEAE: Fatigue: 0 n (%)
  TEAE: Gastroenteritis: 1 (0.6%) n (%)
  TEAE: Headache: 12 (7.4%) n (%)
  TEAE: Hypertension: 2 (1.2%) n (%)
  TEAE: Hypertriglyceridaemia: 0 n (%)
  TEAE: Influenza: 6 (3.7%) n (%)
  TEAE: Injection site pruritus: 0 n (%)
  TEAE: Insomnia: 0 n (%)
  TEAE: Intervertebral disc disorder: 2 (1.2%) n (%)
  TEAE: Laceration: 3 (1.9%) n (%)
  TEAE: Lipase increased: 1 (0.6%) n (%)
  TEAE: Musculoskeletal pain: 1 (0.6%) n (%)
  TEAE: Nasopharyngitis: 9 (5.6%) n (%)
  TEAE: Nausea: 0 n (%)
  TEAE: Nepbrolithiasis: 2 (1.2%) n (%)
  TEAE: Oedema: 2 (1.2%) n (%)
  TEAE: Osteoarthritis: 2 (1.2%) n (%)
  TEAE: Pain in extremity: 0 n (%)
  TEAE: Presyncope: 2 (1.2%) n (%)
  TEAE: Rhinitis: 2 (1.2%) n (%)
  TEAE: Sciatica: 2 (1.2%) n (%)
  TEAE: Sinusitis: 3 (1.9%) n (%)
  TEAE: Tinnitus: 2 (1.2%) n (%)
  TEAE: Tooth abscess: 2 (1.2%) n (%)
  TEAE: Vomiting: 1 (0.6%) n (%)
  Treatment emergent SAE: Angina pectoris: 0 n (%)
  Treatment emergent SAE: Angina unstable: 0 n (%)
  Treatment emergent SAE: Atrial fibrillation: 1 (0.6%) n (%)
  Treatment emergent SAE: Bradycardia: 0 n (%)
  Treatment emergent SAE: Calculus ureteric: 0 n (%)
  Treatment emergent SAE: Cellulitis: 0 n (%)
  Treatment emergent SAE: Depression: 1 (0.6%) n (%)
  Treatment emergent SAE: Diabetic neuropathy: 0 n (%)
  Treatment emergent SAE: ECG signs of myocardial ischaemia: 1 (0.6%) n (%)
  Treatment emergent SAE: Intervertebral disc protrusion: 0 n (%)
  Treatment emergent SAE: Osteoarthritis: 1 (0.6%) n (%)
  Treatment emergent SAE: Ovarian cancer: 0 n (%)
  Treatment emergent SAE: Pain in extremity: 0 n (%)
  Treatment emergent SAE: Presyncope: 1 (0.6%) n (%)
  Treatment emergent SAE: Radius fracture: 0 n (%)
  Treatment emergent SAE: Sciatica: 0 n (%)
PT, adjudicated as not allergic event by ARAC
  TEAE leading to permanent treatment discontinuation: Hypersensitivity: 0 n (%)
SOC
  TEAE leading to permanent treatment discontinuation: Gastrointestinal disorders: 0 n (%)
  TEAE leading to permanent treatment discontinuation: Immune system disorders: 0 n (%)
  TEAE leading to permanent treatment discontinuation: Neoplasms benign, malignant and unspecified (incl cysts and polyps): 0 n (%)
  TEAE leading to permanent treatment discontinuation: Nervous system disorders: 0 n (%)
  TEAE leading to permanent treatment discontinuation: Psychiatric disorders: 0 n (%)
  TEAE: Cardiac disorders: 1 (0.6%) n (%)
  TEAE: Ear and labyrinth disorders: 2 (1.2%) n (%)
  TEAE: Eye disorders: 7 (4.3%) n (%)
  TEAE: Gastrointestinal disorders: 15 (9.3%) n (%)
  TEAE: General disorders and administration site conditions: 5 (3.1%) n (%)
  TEAE: Injury, poisoning and procedural complications: 11 (6.8%) n (%)
  TEAE: Investigations: 5 (3.1%) n (%)
  TEAE: Metabolism and nutrition disorders: 1 (0.6%) n (%)
  TEAE: Musculoskeletal and connective tissue disorders: 13 (8.0%) n (%)
  TEAE: Nervous system disorders: 20 (12.3%) n (%)
  TEAE: Psychiatric disorders: 2 (1.2%) n (%)
  TEAE: Renal and urinary disorders: 2 (1.2%) n (%)
  TEAE: Respiratory, thoracic and mediastinal disorders: 4 (2.5%) n (%)
  TEAE: Vascular disorders: 3 (1.9%) n (%)
  Treatment emergent SAE: Cardiac disorders: 1 (0.6%) n (%)
  Treatment emergent SAE: Injury, poisoning and procedural complications: 0 n (%)
  Treatment emergent SAE: Investigations: 1 (0.6%) n (%)
  Treatment emergent SAE: Musculoskeletal and connective tissue disorders: 1 (0.6%) n (%)
  Treatment emergent SAE: Neoplasms benign, malignant and unspecified (incl cysts and polyps): 0 n (%)
  Treatment emergent SAE: Nervous system disorders: 1 (0.6%) n (%)
  Treatment emergent SAE: Psychiatric disorders: 1 (0.6%) n (%)
  Treatment emergent SAE: Renal and urinary disorders: 0 n (%)
  Patients with any TEAE: 82 (50.6%) n (%)
  Patients with any TEAE leading to death: 0 n (%)
  Patients with any TEAE leading to permanent treatment discontinuation: 0 n (%)
  Patients with any treatment emergent SAE: 6 (3.7%) n (%)
  TEAE leading to permanent treatment discontinuation: HLGT: Allergic conditions: 0 n (%)
  TEAE leading to permanent treatment discontinuation: HLGT: Deliria (incl confusion): 0 n (%)
  TEAE leading to permanent treatment discontinuation: HLGT: Gastrointestinal signs and symptoms: 0 n (%)
  TEAE leading to permanent treatment discontinuation: HLGT: Headaches: 0 n (%)
  TEAE leading to permanent treatment discontinuation: HLGT: Neurological disorders NEC: 0 n (%)
  TEAE leading to permanent treatment discontinuation: HLGT: Reproductive neoplasms female malignant and unspecified: 0 n (%)
  TEAE leading to permanent treatment discontinuation: HLT: Allergic conditions NEC: 0 n (%)
  TEAE leading to permanent treatment discontinuation: HLT: Confusion and disorientation: 0 n (%)
  TEAE leading to permanent treatment discontinuation: HLT: Headaches NEC: 0 n (%)
  TEAE leading to permanent treatment discontinuation: HLT: Nausea and vomiting symptoms: 0 n (%)
  TEAE leading to permanent treatment discontinuation: HLT: Neurological signs and symptoms NEC: 0 n (%)
  TEAE leading to permanent treatment discontinuation: HLT: Ovarian neoplasms malignant (excl germ cell): 0 n (%)
  TEAE: HLGT: Administration site reactions: 1 (0.6%) n (%)
  TEAE: HLGT: Appetite and general nutritional disorders: 1 (0.6%) n (%)
  TEAE: HLGT: Cardiac arrhythmias: 1 (0.6%) n (%)
  TEAE: HLGT: Depressed mood disorders and disturbances: 2 (1.2%) n (%)
  TEAE: HLGT: Gastrointestinal investigations: 2 (1.2%) n (%)
  TEAE: HLGT: Gastrointestinal motility and defaecation conditions: 7 (4.3%) n (%)
  TEAE: HLGT: Gastrointestinal signs and symptoms: 7 (4.3%) n (%)
  TEAE: HLGT: General system disorders NEC: 4 (2.5%) n (%)
  TEAE: HLGT: Headaches: 13 (8.0%) n (%)
  TEAE: HLGT: Injuries NEC: 9 (5.6%) n (%)
  TEAE: HLGT: Inner ear and VIIIth cranial nerve disorders: 2 (1.2%) n (%)
  TEAE: HLGT: Joint disorders: 6 (3.7%) n (%)
  TEAE: HLGT: Lipid metabolism disorders: 0 n (%)
  TEAE: HLGT: Musculoskeletal and connective tissue deformities (incl intervertebral disc disorders): 2 (1.2%) n (%)
  TEAE: HLGT: Musculoskeletal and connective tissue disorders NEC: 3 (1.9%) n (%)
  TEAE: HLGT: Neurological disorders NEC: 5 (3.1%) n (%)
  TEAE: HLGT: Peripheral neuropathies: 2 (1.2%) n (%)
  TEAE: HLGT: Respiratory disorders NEC: 2 (1.2%) n (%)
  TEAE: HLGT: Sleep disorders and disturbances: 0 n (%)
  TEAE: HLGT: Spinal cord and nerve root disorders: 2 (1.2%) n (%)
  TEAE: HLGT: Urolithiases: 2 (1.2%) n (%)
  TEAE: HLGT: Vascular hypertensive disorders: 2 (1.2%) n (%)
  TEAE: HLT: Appetite disorders: 1 (0.6%) n (%)
  TEAE: HLT: Asthenic conditions: 0 n (%)
  TEAE: HLT: Chronic polyneuropathies: 2 (1.2%) n (%)
  TEAE: HLT: Coughing and associated symptoms: 0 n (%)
  TEAE: HLT: Depressive disorders: 2 (1.2%) n (%)
  TEAE: HLT: Digestive enzymes: 2 (1.2%) n (%)
  TEAE: HLT: Disturbances in initiating and maintaining sleep: 0 n (%)
  TEAE: HLT: Dyspeptic signs and symptoms: 1 (0.6%) n (%)
  TEAE: HLT: Elevated triglycerides: 0 n (%)
  TEAE: HLT: Flatulence, bloating and distension: 2 (1.2%) n (%)
  TEAE: HLT: Gastrointestinal atonic and hypomotility disorders NEC: 1 (0.6%) n (%)
  TEAE: HLT: Headaches NEC: 12 (7.4%) n (%)
  TEAE: HLT: Influenza viral infections: 6 (3.7%) n (%)
  TEAE: HLT: Injection site reactions: 1 (0.6%) n (%)
  TEAE: HLT: Inner ear signs and symptoms: 2 (1.2%) n (%)
  TEAE: HLT: Intervertebral disc disorders NEC: 2 (1.2%) n (%)
  TEAE: HLT: Joint related signs and symptoms: 3 (1.9%) n (%)
  TEAE: HLT: Lower respiratory tract and lung infections: 1 (0.6%) n (%)
  TEAE: HLT: Lumbar spinal cord and nerve root disorders: 2 (1.2%) n (%)
  TEAE: HLT: Musculoskeletal and connective tissue pain and discomfort: 3 (1.9%) n (%)
  TEAE: HLT: Nausea and vomiting symptoms: 1 (0.6%) n (%)
  TEAE: HLT: Neurological signs and symptoms NEC: 3 (1.9%) n (%)
  TEAE: HLT: Oedema NBC: 3 (1.9%) n (%)
  TEAE: HLT: Osteoarthropathies: 2 (1.2%) n (%)
  TEAE: HLT: Renal lithiasis: 2 (1.2%) n (%)
  TEAE: HLT: Skin injuries NEC: 5 (3.1%) n (%)
  TEAE: HLT: Supraventricular arrhythmias: 1 (0.6%) n (%)
  TEAE: HLT: Vascular hypertensive disorders NEC: 2 (1.2%) n (%)
  Treatment emergent SAE: HLGT: Bacterial infectious disorders: 0 n (%)
  Treatment emergent SAE: HLGT: Bone and joint injuries: 0 n (%)
  Treatment emergent SAE: HLGT: Cardiac and vascular investigations (excl enzyme tests): 1 (0.6%) n (%)
  Treatment emergent SAE: HLGT: Cardiac arrhythmias: 1 (0.6%) n (%)
  Treatment emergent SAE: HLGT: Coronary artery disorders: 0 n (%)
  Treatment emergent SAE: HLGT: Depressed mood disorders and disturbances: 1 (0.6%) n (%)
  Treatment emergent SAE: HLGT: Joint disorders: 1 (0.6%) n (%)
  Treatment emergent SAE: HLGT: Musculoskeletal and connective tissue deformities (incl intervertebral disc disorders): 0 n (%)
  Treatment emergent SAE: HLGT: Musculoskeletal and connective tissue disorders NEC: 0 n (%)
  Treatment emergent SAE: HLGT: Neurological disorders NEC: 1 (0.6%) n (%)
  Treatment emergent SAE: HLGT: Peripheral neuropathies: 0 n (%)
  Treatment emergent SAE: HLGT: Reproductive neoplasms female malignant and unspecified: 0 n (%)
  Treatment emergent SAE: HLGT: Spinal cord and nerve root disorders: 0 n (%)
  Treatment emergent SAE: HLGT: Urolithiases: 0 n (%)
  Treatment emergent SAE: HLT: Bacterial infections NEC: 0 n (%)
  Treatment emergent SAE: HLT: Chronic polyneuropathies: 0 n (%)
  Treatment emergent SAE: HLT: Depressive disorders: 1 (0.6%) n (%)
  Treatment emergent SAE: HLT: ECG investigations: 1 (0.6%) n (%)
  Treatment emergent SAE: HLT: Intervertebral disc disorders NEC: 0 n (%)
  Treatment emergent SAE: HLT: Ischaemic coronary artery disorders: 0 n (%)
  Treatment emergent SAE: HLT: Lumbar spinal cord and nerve root disorders: 0 n (%)
  Treatment emergent SAE: HLT: Musculoskeletal and connective tissue pain and discomfort: 0 n (%)
  Treatment emergent SAE: HLT: Neurological signs and symptoms NEC: 1 (0.6%) n (%)
  Treatment emergent SAE: HLT: Osteoarthropathies: 1 (0.6%) n (%)
  Treatment emergent SAE: HLT: Ovarian neoplasms malignant (excl germ cell): 0 n (%)
  Treatment emergent SAE: HLT: Rate and rhythm disorders NEC: 0 n (%)
  Treatment emergent SAE: HLT: Supraventricular arrhythmias: 1 (0.6%) n (%)
  Treatment emergent SAE: HLT: Upper limb fractures and dislocations: 0 n (%)
  Treatment emergent SAE: HLT: Urinary tract lithiasis (excl renal): 0 n (%)
Listed as insulin glargine
  Patients with any TEAE leading to permanent treatment discontinuation: none
  Patients with any treatment emergent SAE: 6 (3.7%) n (%)

Reference: patent US11026999B2, “Insulin glargine/lixisenatide fixed ratio formulation” (SANOFI-AVENTIS DEUTSCHLAND GMBH, priority 2013, dated 2021)
